Data reported in paper PMC5377818 (The Journal of Biological Chemistry, 2017).

Assays:
[1] = biological target: FLAG-tagged influenza A virus M2 protein (influenza A virus (strain not stated)) (UniProt P05780); assay: co-IP
c-Myc-tagged cyclin D1 = c-Myc-tagged cyclin D1 (UniProt P24385 1-295); assay: co-IP; conditions: partners not purified
Chain of c-Myc-tagged cyclin D1 (P24385 whole entry): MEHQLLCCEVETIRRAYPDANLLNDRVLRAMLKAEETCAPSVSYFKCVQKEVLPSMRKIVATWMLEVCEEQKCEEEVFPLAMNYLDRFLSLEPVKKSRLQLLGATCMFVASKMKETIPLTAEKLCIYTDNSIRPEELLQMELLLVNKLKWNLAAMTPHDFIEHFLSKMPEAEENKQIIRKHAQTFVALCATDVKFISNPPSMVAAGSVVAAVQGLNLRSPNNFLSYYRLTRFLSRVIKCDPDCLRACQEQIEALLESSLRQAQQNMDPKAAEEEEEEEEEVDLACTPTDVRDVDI

Chain of FLAG- and c-Myc-tagged human cyclin D3 (P30281 whole entry): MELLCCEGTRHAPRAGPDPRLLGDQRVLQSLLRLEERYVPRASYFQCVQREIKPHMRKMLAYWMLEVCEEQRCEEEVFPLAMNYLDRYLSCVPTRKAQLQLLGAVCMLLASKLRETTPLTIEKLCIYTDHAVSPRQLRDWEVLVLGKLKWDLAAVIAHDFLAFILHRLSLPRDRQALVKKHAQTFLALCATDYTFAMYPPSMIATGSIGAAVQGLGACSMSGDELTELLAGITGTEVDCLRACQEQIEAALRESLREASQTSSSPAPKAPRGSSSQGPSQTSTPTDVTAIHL

Row | Molecule | percent reduction of M1 co-precipitated with M2 [1] [%] | M2 co-precipitated, relative to cyclin D3 (c-Myc-tagged cyclin D1) [%]
1 | FLAG- and c-Myc-tagged human cyclin D3 (from UniProt P30281-1 1-292) (natural protein) | 70 | –
2 | Influenza A/WSN/33 virus M2 protein made in infected cells (natural protein) MSLLTEVETPIRNEWGCRCNDSSDPLVIAANIIGILHLILWILDRLFFKCIYRRFKYGLKRGPSTEGVPESMREEYRKEQQNAVDVDDGHFVNIELE | – | ~50
